According to PMC6997759 (2019):

How the values were obtained:
[1] = biological target: AE.A244gp120Δ11 (N-terminal 11 aa deleted) (HIV-1 (clade AE, A244)); test: SPR; apparent affinity
B.MNgp120Δ11 = test: SPR; apparent affinity

B1: DH677.3 MAb (antibody, V domains shown)
VH: QVQLVQSGAEVQKPGASVKVSCKASGYTFASYDINWVRQATGQGLEWMGWMNPKTGNTGYAQKFQGRVTLTRNTSISTAYMELTSLRSEDTAVYYCATYRIIAAVGYRYFQYWGQGTLVTVSS
VL: DIQLTQSPSSLSASVGDSVTITCRASQGFGNYLAWYQQRPGKVPEVLIYAATTLQSGVPSRFSGSGSGTDFTLTISSLQPEDVATYYCQKYNSAPFTFGQGTRLEIK
Kd [1]: 0.6 nM | Kd (B.MNgp120Δ11): 7.02 nM
